# ± gives the uncertainty stated by the source.
# B1: E3 ubiquitin-protein ligase Midline-1, residues 172 to 214; numbered along this chain, O15344 (parent)
# chain: GLMCLEHEDEKVNMYCVTDDQLICALCKLVGRHRDHQVAALSE
# Variants of: B1
# Assay: abundance fitness (aPCA) (normalised: wild type 0, dead -1); higher = more abundant; growth selection in yeast, the domain comes from the species named
# Settings: Homo sapiens
row,Variant,abundance fitness
1,GLMCLEHEDEKVAMYCVTDDQLICALCKLVGRHRDHQVAALSE,-0.146 ± 0.055
2,GLMCLEHEDEKVQMYCVTDDQLICALCKLVGRHRDHQVAALSE,0.005 ± 0.078
3,GLMCLEHEDEKVTMYCVTDDQLICALCKLVGRHRDHQVAALSE,-0.043 ± 0.11
4,GLMCLEHEDEKVLMYCVTDDQLICALCKLVGRHRDHQVAALSE,-0.254 ± 0.077
5,GLMCLEHEDEKVCMYCVTDDQLICALCKLVGRHRDHQVAALSE,-0.13 ± 0.1
6,GLMCLEHEDEKVGMYCVTDDQLICALCKLVGRHRDHQVAALSE,-0.022 ± 0.045
7,GLMCLEHEDEKVEMYCVTDDQLICALCKLVGRHRDHQVAALSE,-0.084 ± 0.063
8,GLMCLEHEDEKVRMYCVTDDQLICALCKLVGRHRDHQVAALSE,-0.137 ± 0.049
9,GLMCLEHEDEKVFMYCVTDDQLICALCKLVGRHRDHQVAALSE,0.354 ± 0.19
10,GLMCLEHEDEKVPMYCVTDDQLICALCKLVGRHRDHQVAALSE,-0.567 ± 0.28
11,GLMCLEHEDEKVKMYCVTDDQLICALCKLVGRHRDHQVAALSE,0.04 ± 0.071
12,GLMCLEHEDEKVYMYCVTDDQLICALCKLVGRHRDHQVAALSE,-0.108 ± 0.16
13,GLMCLEHEDEKVSMYCVTDDQLICALCKLVGRHRDHQVAALSE,-0.345 ± 0.095
14,GLMCLEHEDEKVVMYCVTDDQLICALCKLVGRHRDHQVAALSE,-0.396 ± 0.055
15,GLMCLEHEDEKVDMYCVTDDQLICALCKLVGRHRDHQVAALSE,-0.071 ± 0.092
16,GLMCLEHEDEKVNAYCVTDDQLICALCKLVGRHRDHQVAALSE,0.043 ± 0.048
17,GLMCLEHEDEKVNSYCVTDDQLICALCKLVGRHRDHQVAALSE,0.267 ± 0.065
18,GLMCLEHEDEKVNFYCVTDDQLICALCKLVGRHRDHQVAALSE,-0.451 ± 0.49
19,GLMCLEHEDEKVNRYCVTDDQLICALCKLVGRHRDHQVAALSE,0.033 ± 0.055
20,GLMCLEHEDEKVNKYCVTDDQLICALCKLVGRHRDHQVAALSE,0.121 ± 0.21
21,GLMCLEHEDEKVNTYCVTDDQLICALCKLVGRHRDHQVAALSE,0.301 ± 0.084
22,GLMCLEHEDEKVNVYCVTDDQLICALCKLVGRHRDHQVAALSE,-0.386 ± 0.064
23,GLMCLEHEDEKVNEYCVTDDQLICALCKLVGRHRDHQVAALSE,0.176 ± 0.055
24,GLMCLEHEDEKVNCYCVTDDQLICALCKLVGRHRDHQVAALSE,0.137 ± 0.11

row,Variant,abundance fitness
1,GLMCLEHEDEKVNHYCVTDDQLICALCKLVGRHRDHQVAALSE,-0.112 ± 0.3
2,GLMCLEHEDEKVNNYCVTDDQLICALCKLVGRHRDHQVAALSE,-0.028 ± 0.18
3,GLMCLEHEDEKVNWYCVTDDQLICALCKLVGRHRDHQVAALSE,-0.055 ± 0.056
4,GLMCLEHEDEKVNQYCVTDDQLICALCKLVGRHRDHQVAALSE,0.242 ± 0.066
5,GLMCLEHEDEKVNDYCVTDDQLICALCKLVGRHRDHQVAALSE,0.09 ± 0.12
6,GLMCLEHEDEKVNGYCVTDDQLICALCKLVGRHRDHQVAALSE,0.059 ± 0.045
7,GLMCLEHEDEKVNLYCVTDDQLICALCKLVGRHRDHQVAALSE,-0.022 ± 0.055
8,GLMCLEHEDEKVNPYCVTDDQLICALCKLVGRHRDHQVAALSE,-0.405 ± 0.075
9,GLMCLEHEDEKVNMTCVTDDQLICALCKLVGRHRDHQVAALSE,-0.288 ± 0.086
10,GLMCLEHEDEKVNMECVTDDQLICALCKLVGRHRDHQVAALSE,0.001 ± 0.058
11,GLMCLEHEDEKVNMGCVTDDQLICALCKLVGRHRDHQVAALSE,-0.015 ± 0.046
12,GLMCLEHEDEKVNMRCVTDDQLICALCKLVGRHRDHQVAALSE,0.258 ± 0.047
13,GLMCLEHEDEKVNMCCVTDDQLICALCKLVGRHRDHQVAALSE,0.059 ± 0.072
14,GLMCLEHEDEKVNMVCVTDDQLICALCKLVGRHRDHQVAALSE,-0.014 ± 0.059
15,GLMCLEHEDEKVNMSCVTDDQLICALCKLVGRHRDHQVAALSE,-0.023 ± 0.061
16,GLMCLEHEDEKVNMNCVTDDQLICALCKLVGRHRDHQVAALSE,-0.165 ± 0.13
17,GLMCLEHEDEKVNMQCVTDDQLICALCKLVGRHRDHQVAALSE,0.315 ± 0.075
18,GLMCLEHEDEKVNMKCVTDDQLICALCKLVGRHRDHQVAALSE,0.28 ± 0.078
19,GLMCLEHEDEKVNMWCVTDDQLICALCKLVGRHRDHQVAALSE,-0.089 ± 0.095
20,GLMCLEHEDEKVNMMCVTDDQLICALCKLVGRHRDHQVAALSE,-0.094 ± 0.093
21,GLMCLEHEDEKVNMLCVTDDQLICALCKLVGRHRDHQVAALSE,0.014 ± 0.063
22,GLMCLEHEDEKVNMACVTDDQLICALCKLVGRHRDHQVAALSE,0.045 ± 0.051
23,GLMCLEHEDEKVNMHCVTDDQLICALCKLVGRHRDHQVAALSE,0.151 ± 0.14
24,GLMCLEHEDEKLNMYCVTDDQLICALCKLVGRHRDHQVAALSE,-0.233 ± 0.11

row,Variant,abundance fitness
1,GLMCLEHEDEKPNMYCVTDDQLICALCKLVGRHRDHQVAALSE,-0.51 ± 0.34
2,GLMCLEHEDEKGNMYCVTDDQLICALCKLVGRHRDHQVAALSE,0.026 ± 0.048
3,GLMCLEHEDEKFNMYCVTDDQLICALCKLVGRHRDHQVAALSE,0.301 ± 0.3
4,GLMCLEHEDEKYNMYCVTDDQLICALCKLVGRHRDHQVAALSE,-0.02 ± 0.16
5,GLMCLEHEDEKRNMYCVTDDQLICALCKLVGRHRDHQVAALSE,0.024 ± 0.059
6,GLMCLEHEDEKANMYCVTDDQLICALCKLVGRHRDHQVAALSE,-0.208 ± 0.09
7,GLMCLEHEDEKKNMYCVTDDQLICALCKLVGRHRDHQVAALSE,0.319 ± 0.14
8,GLMCLEHEDEKENMYCVTDDQLICALCKLVGRHRDHQVAALSE,-0.122 ± 0.075
9,GLMCLEHEDEKINMYCVTDDQLICALCKLVGRHRDHQVAALSE,0.093 ± 0.17
10,GLMCLEHEDEKCNMYCVTDDQLICALCKLVGRHRDHQVAALSE,-0.231 ± 0.37
11,GLMCLEHEDEKMNMYCVTDDQLICALCKLVGRHRDHQVAALSE,-0.042 ± 0.12
12,GLMCLEHEDEKWNMYCVTDDQLICALCKLVGRHRDHQVAALSE,-0.251 ± 0.095
13,GLMCLEHEDEKQNMYCVTDDQLICALCKLVGRHRDHQVAALSE,0.328 ± 0.2
14,GLMCLEHEDEKTNMYCVTDDQLICALCKLVGRHRDHQVAALSE,-0.149 ± 0.081
15,GLMCLEHEDEKVNMYCVTEDQLICALCKLVGRHRDHQVAALSE,-0.012 ± 0.052
16,GLMCLEHEDEKVNMYCVTCDQLICALCKLVGRHRDHQVAALSE,-0.175 ± 0.14
17,GLMCLEHEDEKVNMYCVTFDQLICALCKLVGRHRDHQVAALSE,-0.218 ± 0.27
18,GLMCLEHEDEKVNMYCVTADQLICALCKLVGRHRDHQVAALSE,-0.928 ± 0.088
19,GLMCLEHEDEVVNMYCVTDDQLICALCKLVGRHRDHQVAALSE,-0.259 ± 0.059
20,GLMCLEHEDEMVNMYCVTDDQLICALCKLVGRHRDHQVAALSE,0.096 ± 0.096
21,GLMCLEHEDENVNMYCVTDDQLICALCKLVGRHRDHQVAALSE,0.027 ± 0.14
22,GLMCLEHEDEWVNMYCVTDDQLICALCKLVGRHRDHQVAALSE,-0.288 ± 0.067
23,GLMCLEHEDEPVNMYCVTDDQLICALCKLVGRHRDHQVAALSE,-0.259 ± 0.18
24,GLMCLEHEDESVNMYCVTDDQLICALCKLVGRHRDHQVAALSE,-0.07 ± 0.063

row,Variant,abundance fitness
1,GLMCLEHEDEQVNMYCVTDDQLICALCKLVGRHRDHQVAALSE,0.158 ± 0.079
2,GLMCLEHEDERVNMYCVTDDQLICALCKLVGRHRDHQVAALSE,-0.012 ± 0.052
3,GLMCLEHEDEKVNMYCVMDDQLICALCKLVGRHRDHQVAALSE,-0.394 ± 0.15
4,GLMCLEHEDEKVNMYCVYDDQLICALCKLVGRHRDHQVAALSE,-0.482 ± 0.23
5,GLMCLEHEDEKVNMYCVPDDQLICALCKLVGRHRDHQVAALSE,-0.492 ± 0.14
6,GLMCLEHEDEKVNMYCVRDDQLICALCKLVGRHRDHQVAALSE,-0.101 ± 0.057
7,GLMCLEHEDEKVNMYCVNDDQLICALCKLVGRHRDHQVAALSE,-0.048 ± 0.45
8,GLMCLEHEDEKVNMYCVLDDQLICALCKLVGRHRDHQVAALSE,-0.32 ± 0.066
9,GLMCLEHEDEKVNMYCVDDDQLICALCKLVGRHRDHQVAALSE,-0.152 ± 0.079
10,GLMCLEHEDEKVNMYCVWDDQLICALCKLVGRHRDHQVAALSE,-0.532 ± 0.094
11,GLMCLEHEDEKVNMYCVKDDQLICALCKLVGRHRDHQVAALSE,-0.019 ± 0.063
12,GLMCLEHEDEKVNMYCVQDDQLICALCKLVGRHRDHQVAALSE,-0.073 ± 0.1
13,GLMCLEHEDEKVNMYCVCDDQLICALCKLVGRHRDHQVAALSE,-0.256 ± 0.1
14,GLMCLEHEDEKVNMYCVVDDQLICALCKLVGRHRDHQVAALSE,-0.077 ± 0.064
15,GLMCLEHEDEKVNMYCYTDDQLICALCKLVGRHRDHQVAALSE,-0.071 ± 0.16
16,GLMCLEHEDEKVNMYCQTDDQLICALCKLVGRHRDHQVAALSE,0.275 ± 0.065
17,GLMCLEHEDEKVNMYCSTDDQLICALCKLVGRHRDHQVAALSE,0.174 ± 0.051
18,GLMCLEHEDEKVNMYCGTDDQLICALCKLVGRHRDHQVAALSE,0.092 ± 0.045
19,GLMCLEHEDEKVNMYCNTDDQLICALCKLVGRHRDHQVAALSE,0.545 ± 0.22
20,GLMCLEHEDEKVNMYCCTDDQLICALCKLVGRHRDHQVAALSE,0.173 ± 0.072
21,GLMCLEHEDEKVNMYCKTDDQLICALCKLVGRHRDHQVAALSE,0.444 ± 0.065
22,GLMCLEHEDEKVNMYCATDDQLICALCKLVGRHRDHQVAALSE,0.172 ± 0.049
23,GLMCLEHEDEKVNMYCWTDDQLICALCKLVGRHRDHQVAALSE,-0.176 ± 0.07
24,GLMCLEHEDEKVNMYCLTDDQLICALCKLVGRHRDHQVAALSE,-0.094 ± 0.061

row,Variant,abundance fitness
1,GLMCLEHEDEKVNMYCHTDDQLICALCKLVGRHRDHQVAALSE,0.29 ± 0.095
2,GLMCLEHEDEKVNMYCITDDQLICALCKLVGRHRDHQVAALSE,0.235 ± 0.12
3,GLMCLEHEDEKVNMYCETDDQLICALCKLVGRHRDHQVAALSE,0.135 ± 0.06
4,GLMCLEHEDEKVNMYCDTDDQLICALCKLVGRHRDHQVAALSE,0.113 ± 0.067
5,GLMCLEHEDEKVNMYCTTDDQLICALCKLVGRHRDHQVAALSE,-0.027 ± 0.069
6,GLMCLEHEDEKVNMYCRTDDQLICALCKLVGRHRDHQVAALSE,0.176 ± 0.048
7,GLMCLEHEDEKVNMYTVTDDQLICALCKLVGRHRDHQVAALSE,-0.351 ± 0.1
8,GLMCLEHEDEKVNMYPVTDDQLICALCKLVGRHRDHQVAALSE,-0.289 ± 0.065
9,GLMCLEHEDEKVNMYHVTDDQLICALCKLVGRHRDHQVAALSE,-0.215 ± 0.12
10,GLMCLEHEDEKVNMYVVTDDQLICALCKLVGRHRDHQVAALSE,-0.725 ± 0.096
11,GLMCLEHEDEKVNMYKVTDDQLICALCKLVGRHRDHQVAALSE,-0.298 ± 0.18
12,GLMCLEHEDEKVNMYNVTDDQLICALCKLVGRHRDHQVAALSE,-0.183 ± 0.14
13,GLMCLEHEDEKVNMYEVTDDQLICALCKLVGRHRDHQVAALSE,-0.185 ± 0.065
14,GLMCLEHEDEKVNMYWVTDDQLICALCKLVGRHRDHQVAALSE,-1.19 ± 0.21
15,GLMCLEHEDEKVNMYGVTDDQLICALCKLVGRHRDHQVAALSE,-0.291 ± 0.049
16,GLMCLEHEDEKVNMYIVTDDQLICALCKLVGRHRDHQVAALSE,-0.127 ± 0.24
17,GLMCLEHEDEKVNMYRVTDDQLICALCKLVGRHRDHQVAALSE,-0.469 ± 0.062
18,GLMCLEHEDEKVNMYQVTDDQLICALCKLVGRHRDHQVAALSE,-0.219 ± 0.076
19,GLMCLEHEDEKVNMYYVTDDQLICALCKLVGRHRDHQVAALSE,-0.624 ± 0.28
20,GLMCLEHEDEKVNMYAVTDDQLICALCKLVGRHRDHQVAALSE,-0.569 ± 0.087
21,GLMCLEHEDEKVNMYMVTDDQLICALCKLVGRHRDHQVAALSE,-0.674 ± 0.43
22,GLMCLEHEDEKVNMYSVTDDQLICALCKLVGRHRDHQVAALSE,-0.14 ± 0.11

# From the Human Domainome abundance scans (Beltran et al. 2025)
